From US20170015742A1 (published 2017)
Substitutions are numbered along the chain they refer to. Numbers in names are those of the source. One block for each binder: values may come before it.

Key:
[1] = molecular target: Human VEGF-A 165 (human, UniProt P15692 207-395); assay: cell-based or functional assay
[2] = molecular target: T1, recombinant human VEGF165 (human, UniProt P15692 207-395); assay: SPR (Biacore), antibody captured by anti-human Fc, hVEGF165 in solution
T1 construct: also called hVEGF165
T1 sequence (P15692 other isoform, or with tags, fused parts or gaps limits assumed): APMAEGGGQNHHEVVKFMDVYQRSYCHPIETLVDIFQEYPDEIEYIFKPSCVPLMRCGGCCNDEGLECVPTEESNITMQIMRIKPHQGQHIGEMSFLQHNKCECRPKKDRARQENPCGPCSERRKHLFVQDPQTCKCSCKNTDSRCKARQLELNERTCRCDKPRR
Method: (§1) Unreacted moieties on the biosensor surface were blocked with ethanolamine. For kinetic analysis, rate equations derived from the 1:1 Langmuir binding model were fitted simultaneously to multiple antigen injections (using global fit analysis) with the use of Scrubber 2 (BioLogic Software), Biacore Biaevaluation 4.0.1 software or Biacore T100 Evaluation software. Purified antibodies or DVD-Ig molecules were diluted in running buffer for capture across goat anti-human Fc reaction surfaces. Antibodies or DVD-Ig molecules to be captured as a ligand (1 μg/ml) were injected over reaction matrices at a flow rate of 10 μl/minute. During the assay, all measurements were referenced against the capture surface alone (i.e., with no captured antibody or DVD-Ig molecule). […] The equilibrium dissociation constant KD (M) of the reaction between antibodies and the target antigen was then calculated from the kinetic rate constants by the following formula: KD=Koff/Kₒₙ. Binding was recorded as a function of time and kinetic rate constants were calculated. In this assay, on-rates as fast as 10⁶M⁻¹s⁻¹ and off-rates as slow as 10⁻⁶ s⁻¹ could be measured.
Affinity matured humanized anti-VEGF antibodies were characterized for hVEGF₁₆₅ binding and potency. Binding affinity of these molecules to hVEGF₁₆₅ was determined by Biacore analysis (Example 1.1). Potency was evaluated in both cell-based and ELISA formats. The ability to block binding of hVEGF₁₆₅ to hVEGFR2 was evaluated in a competition ELISA (Example 1.4) Inhibition of hVEGF₁₆₅-induced cell proliferation was assessed using HMVEC-d cells (Example 1.10).

[3] = molecular target: VEGF-A (UniProt P15692-4 27-191, limits assumed); assay: SPR (Biacore), DVD-Ig captured by anti-human Fc, antigen injected
Chain of VEGF-A (P15692 other isoform, or with tags, fused parts or gaps limits assumed): as above
Method: as §1, with “For example, approximately 9000 RU of goat anti-human Fc specific polyclonal antibody (Thermo Fisher Scientific Inc., Rockford, Ill.) diluted in 10 mM sodium acetate (pH 4.5) is directly immobilized across a CM5 research grade biosensor chip using a standard amine coupling kit according to manufacturer's instructions and procedures at 25 μg/ml. Unreacted” for “Unreacted”, “calculated.” for “calculated. In this assay, on-rates as fast as 10⁶M⁻¹s⁻¹ and off-rates as slow as 10⁻⁶ s⁻¹ could be measured.”

[4] = molecular target: PDGF-BB (UniProt P01127 82-190); assay: as above
Chain of PDGF-BB (P01127 82-190): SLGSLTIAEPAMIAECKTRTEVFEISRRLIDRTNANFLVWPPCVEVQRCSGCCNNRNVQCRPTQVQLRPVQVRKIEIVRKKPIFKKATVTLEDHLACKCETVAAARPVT
Method: as §1, with “For example, approximately 9000 RU of goat anti-human Fc specific polyclonal antibody (Thermo Fisher Scientific Inc., Rockford, Ill.) diluted in 10 mM sodium acetate (pH 4.5) is directly immobilized across a CM5 research grade biosensor chip using a standard amine coupling kit according to manufacturer's instructions and procedures at 25 μg/ml. Unreacted” for “Unreacted”, “calculated.” for “calculated. In this assay, on-rates as fast as 10⁶M⁻¹s⁻¹ and off-rates as slow as 10⁻⁶ s⁻¹ could be measured.”

Chain of Human VEGF-A 165 (P15692 other isoform, or with tags, fused parts or gaps limits assumed): as the sequence (P15692 other isoform, or with tags, fused parts or gaps limits assumed) above

B1: hBEW-5C3.1 (antibody, V domains shown)
VH: EIQLVQSGSELKKPGASVKVSCKASGYTFTNYGVYWVKQAPGQGLEYMGWINTETGKPTYADDFKGRFVFSLDTSVSTAYLQISSLKAEDTAVYYCARARQLDWFVYWGQGTLVTVSS
VL: DTVLTQSPATLSLSPGERATLSCRARESLTTSLSWFQQKPGQQPRLLIYGASKLESGVPARFSGSGSGTDFTLTISSLEPEDFAVYFCQQSWYDPPTFGGGTKVEIK
hVEGF165 IC50 (nM), HMVEC-d proliferation [1]: 0.071 nM

B2: hBEW-5C3.2 (antibody, V domains shown)
VH: EIQLVQSGAEVKKPGSSVKVSCKASGYTFTNYGVYWVKQAPGQGLEYMGWINTETGKPTYADDFKGRFTFTLDKSTSTAYMELSSLRSEDTAVYFCARARQLDWFVYWGQGTLVTVSS
VL: B1 VL
hVEGF165 IC50 (nM), HMVEC-d proliferation [1]: 0.162 nM

B6: 3E2.1_GS_9E10.6 (PR-1612501) (bispecific antibody, human IgG1, kappa, L234A L235A)
heavy: EVQLVQSGAEVKKPGSSVKVSCKASGYTFTESYMYWVKQAPGQGLELIGRIDPEDGSTDYVEKFKNKATLTADKSTSTAYMELSSLRSEDTAVYFCARFGARSYFYPMDAWGQGTTVTVSSGGGGSGGGGSEVQLVQSGAEVKKPGSSVKVSCKASGYTFTNYGMYWVRQAPGQGLEWMGWIDTETGRPTYADDFKGRFTFTADKSTSTAYMELSSLRSEDTAVYYCARWSGDTTGIRGPWFAYWGQGTLVTVSSASTKGPSVFPLAPSSKSTSGGTAALGCLVKDYFPEPVTVSWNSGALTSGVHTFPAVLQSSGLYSLSSVVTVPSSSLGTQTYICNVNHKPSNTKVDKKVEPKSCDKTHTCPPCPAPEAAGGPSVFLFPPKPKDTLMISRTPEVTCVVVDVSHEDPEVKFNWYVDGVEVHNAKTKPREEQYNSTYRVVSVLTVLHQDWLNGKEYKCKVSNKALPAPIEKTISKAKGQPREPQVYTLPPSREEMTKNQVSLTCLVKGFYPSDIAVEWESNGQPENNYKTTPPVLDSDGSFFLYSKLTVDKSRWQQGNVFSCSVMHEALHNAYTQKSLSLSPGK
light: ETVLTQSPATLSLSPGERATLSCRASESVSTLMHWYQQKPGQQPRLLIYGASNLESGVPARFSGSGSGTDFTLTISSLEPEDFAVYFCQQSWNDPWTFGGGTKVEIKGGSGGGGSGGDIRMTQSPSSLSASVGDRVTITCLASEDIYSDLAWYQQKPGKSPKLLIYNANGLQNGVPSRFSGSGSGTDYTLTISSLQPEDVATYFCQQYNYFPGTFGQGTKLEIKRTVAAPSVFIFPPSDEQLKSGTASVVCLLNNFYPREAKVQWKVDNALQSGNSQESVTEQDSKDSTYSLSSTLTLSKADYEKHKVYACEVTHQGLSSPVTKSFNRGEC
notes: DVD-Ig: outer hBFU-3E2.1 (PDGF), inner hBEW-9E10.6 (VEGF), linkers GS-H10 / GS-L10(dR); Human IgG1 L234A, L235A, H435A with kappa light chain
Kd [3]: 0.041 nM
kon [3]: 570000 M⁻¹ s⁻¹
Kd [4]: ≤ 0.0053 nM
kon [4]: ≥ 9e+07 M⁻¹ s⁻¹

B7: hBEW-1E3.3 (antibody, V domains shown)
VH: EVQLVQSGAEVKKPGASVKVSCKASGYPFTNSGMYWVRQAPGQGLEWMGWINTEAGKPTYADDFKGRFTFTLDTSTSTAYLEIRSLRSDDTAVYYCARWGYISDNSYGWFDYWGQGTLVTVSS
VL: ETVLTQSPATLSLSPGERATLSCRASEGVYSYMHWYQQKPGQQPRLLIYKASNLASGVPARFSGSGSGTDFTLTISSLEPEDFAVYFCHQNWNDPLTFGQGTKLEIK
hVEGF165 IC50 (nM), HMVEC-d proliferation [1]: 0.205 nM

B9: 3E2.1_GS_1E3.4 (PR-1613190) (bispecific antibody, human IgG1, kappa, L234A L235A)
heavy: EVQLVQSGAEVKKPGSSVKVSCKASGYTFTESYMYWVKQAPGQGLELIGRIDPEDGSTDYVEKFKNKATLTADKSTSTAYMELSSLRSEDTAVYFCARFGARSYFYPMDAWGQGTTVTVSSGGGGSGGGGSEIQLVQSGSELKKPGASVKVSCKASGYPFTNSGMYWVKQAPGQGLEYMGWINTEAGKPTYADDFKGRFVFSLDTSVSTAYLQISSLKAEDTAVYFCARWGYISDNSYGWFDYWGQGTLVTVSSASTKGPSVFPLAPSSKSTSGGTAALGCLVKDYFPEPVTVSWNSGALTSGVHTFPAVLQSSGLYSLSSVVTVPSSSLGTQTYICNVNHKPSNTKVDKKVEPKSCDKTHTCPPCPAPEAAGGPSVFLFPPKPKDTLMISRTPEVTCVVVDVSHEDPEVKFNWYVDGVEVHNAKTKPREEQYNSTYRVVSVLTVLHQDWLNGKEYKCKVSNKALPAPIEKTISKAKGQPREPQVYTLPPSREEMTKNQVSLTCLVKGFYPSDIAVEWESNGQPENNYKTTPPVLDSDGSFFLYSKLTVDKSRWQQGNVFSCSVMHEALHNAYTQKSLSLSPGK
light: ETVLTQSPATLSLSPGERATLSCRASESVSTLMHWYQQKPGQQPRLLIYGASNLESGVPARFSGSGSGTDFTLTISSLEPEDFAVYFCQQSWNDPWTFGGGTKVEIKGGSGGGGSGGATQLTQSPSSLSASVGDRVTISCRASEGVYSYMHWYQQKPGKQPKLLIYKASNLASGVPSRFSGSGSGTDFTLTISSLQPEDFATYFCHQNWNDPLTFGQGTKLEIKRTVAAPSVFIFPPSDEQLKSGTASVVCLLNNFYPREAKVQWKVDNALQSGNSQESVTEQDSKDSTYSLSSTLTLSKADYEKHKVYACEVTHQGLSSPVTKSFNRGEC
notes: DVD-Ig: outer hBFU-3E2.1 (PDGF), inner hBEW-1E3.4 (VEGF), linkers GS-H10 / GS-L10(dR); Human IgG1 L234A, L235A, H435A with kappa light chain
Kd [3]: 0.26 nM
kon [3]: 360000 M⁻¹ s⁻¹
Kd [4]: ≤ 0.0053 nM
kon [4]: ≥ 9e+07 M⁻¹ s⁻¹

More lines, now with the values ahead:

hVEGF165 IC50 (nM), HMVEC-d proliferation [1]: 0.098 nM
B3: hBEW-5C3.4 (antibody, V domains shown)
VH: B1 VH
VL: DTQLTQSPSSLSASVGDRVTISCRARESLTTSLSWFQQKPGKQPKLLIYGASKLESGVPSRFSGSGSGTDFTLTISSLQPEDFATYFCQQSWYDPPTFGGGTKVEIK

hVEGF165 IC50 (nM), HMVEC-d proliferation [1]: > 2 nM
B4: hBEW-5C3.3 (antibody, V domains shown)
VH: B2 VH with I2V, K38R, Y47W, F95Y
VL: B1 VL

Kd [2]: 0.012 nM
kon [2]: 9.2e+06 M⁻¹ s⁻¹
B5: CL-28815-IgG (EI version of parent mAb) (antibody, V domains shown)
VH: EVQLVQSGSELKKPGASVKVSCKASGYTFTNYGMYWVRQAPGQGLEWMGWINTETGKPTYADDFKGRFVFSLDTSVSTAYLQISSLKAEDTAVYYCARTNYYYRSYIFYFDYWGQGTMVTVSS
VL: EIVLTQSPATLSLSPGERATLSCRASESVSTHMHWYQQKPGQAPRLLIYGASNLESGVPARFSGSGSGTDFTLTISSLEPEDFAVYFCQQSWNDPFTFGQGTKLEIK
notes: IgG format

Kd [3]: 0.32 nM
kon [3]: 350000 M⁻¹ s⁻¹
Kd [4]: 0.0018 nM
kon [4]: 8.4e+07 M⁻¹ s⁻¹
B8: 3E2.1_GS_1B10.1 (PR-1612502) (bispecific antibody, human IgG1, kappa, L234A L235A)
heavy: EVQLVQSGAEVKKPGSSVKVSCKASGYTFTESYMYWVKQAPGQGLELIGRIDPEDGSTDYVEKFKNKATLTADKSTSTAYMELSSLRSEDTAVYFCARFGARSYFYPMDAWGQGTTVTVSSGGGGSGGGGSEVQLVESGGGLVQPGGSLRLSCAASGFSFSKYDMAWFRQAPGKGLEWVASITTSGVGTYYRDSVKGRFTVSRDNAKSTLYLQMNSLRAEDTAVYYCARGYGAMDAWGQGTTVTVSSASTKGPSVFPLAPSSKSTSGGTAALGCLVKDYFPEPVTVSWNSGALTSGVHTFPAVLQSSGLYSLSSVVTVPSSSLGTQTYICNVNHKPSNTKVDKKVEPKSCDKTHTCPPCPAPEAAGGPSVFLFPPKPKDTLMISRTPEVTCVVVDVSHEDPEVKFNWYVDGVEVHNAKTKPREEQYNSTYRVVSVLTVLHQDWLNGKEYKCKVSNKALPAPIEKTISKAKGQPREPQVYTLPPSREEMTKNQVSLTCLVKGFYPSDIAVEWESNGQPENNYKTTPPVLDSDGSFFLYSKLTVDKSRWQQGNVFSCSVMHEALHNAYTQKSLSLSPGK
light: ETVLTQSPATLSLSPGERATLSCRASESVSTLMHWYQQKPGQQPRLLIYGASNLESGVPARFSGSGSGTDFTLTISSLEPEDFAVYFCQQSWNDPWTFGGGTKVEIKGGSGGGGSGGDIQMTQSPSSLSASVGDRVTITCKASQDIDDYLSWYQQKPGKSPKLVIYAATRLADGVPSRFSGSGSGTDYTLTISSLQPEDFATYYCLQSSSTPWTFGGGTKVEIKRTVAAPSVFIFPPSDEQLKSGTASVVCLLNNFYPREAKVQWKVDNALQSGNSQESVTEQDSKDSTYSLSSTLTLSKADYEKHKVYACEVTHQGLSSPVTKSFNRGEC
notes: DVD-Ig: outer hBFU-3E2.1 (PDGF), inner hBEW-1B10.1 (VEGF), linkers GS-H10 / GS-L10(dR); Human IgG1 L234A, L235A, H435A with kappa light chain

hVEGF165 IC50 (nM), HMVEC-d proliferation [1]: 0.168 nM
B10: hBEW-1B10.1 (antibody, V domains shown)
VH: EVQLVESGGGLVQPGGSLRLSCAASGFSFSKYDMAWFRQAPGKGLEWVASITTSGVGTYYRDSVKGRFTVSRDNAKSTLYLQMNSLRAEDTAVYYCARGYGAMDAWGQGTTVTVSS
VL: DIQMTQSPSSLSASVGDRVTITCKASQDIDDYLSWYQQKPGKSPKLVIYAATRLADGVPSRFSGSGSGTDYTLTISSLQPEDFATYYCLQSSSTPWTFGGGTKVEIK

hVEGF165 IC50 (nM), HMVEC-d proliferation [1]: 0.222 nM
B11: hBEW-1B10.2 (antibody, V domains shown)
VH: B10 VH with S77N, T78S
VL: B10 VL
